Positions count from the first letter of the chain named.
B1: antibody 348 (antibody, V domains shown)
VH: QVQLVQSGSELKKPGASVKVSCKASGYTFTSYAMNWVRQAPGQGLEWMGWINTNTGNPTYAQGFTGRFVFSLDTSVSTAYLQISSLKAEDTAVYYCARDHELPNTSSWFGHFEYWGQGTLVTVSS
VL: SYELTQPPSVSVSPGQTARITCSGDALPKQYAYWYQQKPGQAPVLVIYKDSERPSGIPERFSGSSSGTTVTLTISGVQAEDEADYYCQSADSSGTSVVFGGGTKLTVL
B2: antibody 351 (antibody, V domains shown)
VH: HVQLVESGGGVVQPGRSLRLSCAASGFISRNYGMEWVRQAPGQGLEWVAGIWYDGSKKYYADSVKGRFTISRDTSKNTLFLQMDSLRAEDTAVFYCATATKTFCGGDCPPGGMDVWGQGTTVTVST
VL: SYVLTQPPSVSVAPGKTAWITCVGNNIESESVHWYQQRPGQAPVLVIYYDSDRPSGIPERFFGSNSGNTATLTISRVEAGDEADYYCQVWDSNSDLMVFGGGTKLTVL
B3: antibody 349 (antibody, V domains shown)
VH: EVQLVQSGAEVKKPGATVKISCKVSGYTFTDYYMHWVQQAPGKGLEWMGLVDPEDGETIYAEKFQGRVTITADTSTDTAYMELSSLRSEDTAVYYCATENKVPTIIAAAGTRDYYYYGMDVWGQGTTVTVSS
VL: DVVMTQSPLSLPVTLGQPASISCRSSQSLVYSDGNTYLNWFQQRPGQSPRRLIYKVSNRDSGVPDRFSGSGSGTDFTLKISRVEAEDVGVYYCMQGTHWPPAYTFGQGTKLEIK
B4: antibody 366 (antibody, V domains shown)
VH: QVQLVESGGGVVQPGRSLRLSCAASGFTFSSYAMHWVRQAPGKGLEWVAVISYDGSNKYYADSVKGRFTISRDNSKNTLYLQMNSLRAEDTAVYYCARGLVGYNWFDPWGQGTLVTVSS
VL: DIQMTQSPSSVSASVGDRVTITCRASQGISSWLAWYQQKPGKAPKLLIYAASSLQSGVPSRFSGSGSGTDFTLTISSLQPEDFATYYCQQANSFTFGPGTKVDIK
B5: antibody 368 (antibody, V domains shown)
V domain 1: QITLKESGPTLVKPTETLTLTCAFSGFSLTKTGEAAGWIRQAPGRALEWVTVIFWDDDKRYSPSLQNRLTVTKDTSKNVVVLTMTNVDPVDTATYFCWAMGGPGKEFFGQGTRVAVSS
V domain 2: QSVLTQPPSVSGAPGQRVTVSCTGTSSSIGPYSDVHWYQHIPGKAPRLLIFGTSNRPSGVPARFSGSKSGSSASLVIAGLQAEDEADYYCQSYDSSLGEIYVFGTGTTVTVL
B6: antibody 380 (antibody, V domains shown)
VH: QVQLVESGGGVVQPGRSLRLSCAASGFTLKNYGMHWVRQAPGKGLEWVIVLSFDGSDEYKADSVRGRFTVSRDNSKNTLFLQMNSLRPDDTAVYYCAREQPTMIEGGRGPFDIWGQGTMVTVSS
VL: EVVMTQSPATLSVSPGDRATLSCRASQGVNSNLAWYQQKPGQAPRLLIYAASTRATGIPARFSASGSGTHFTLTISSLQSEDFAVYYCLQYNNWPPWTFGQGTKLEIK
B7: antibody 343 (antibody, V domains shown)
VH: QVQLVESGGDVVQPGTSLRLSCAASGFTFNNYGFHWVRQAPGKGLEWVALISSDGASTHYADSVKGRFTISRDSSVNTLYLQMNSLSLEDTAVYYCATGHCGTTCYYFDYWGQGTLVSVSS
VL: DIQVTQSPSYLSASVGDRVTITCRASQTISTFLQWYQQKVGKAPKLLIYAASTLQSGVPSRFSGSGSGTDFSLTISSLQPEDFATYYCQQSYSAPLSFGGGTKVEIK
B8: antibody 345 (antibody, V domains shown)
VH: QVQLQESGPGLVKPSQTLSLTCTVSGGSISSGDYYWSWIRQPPGKGLEWIGYIYYSGSTYYNPSLKSRVTISVDTSKNQFSLKLSSVTAADTAVYYCARVGMVDNWNFEGNWFDPWGQGTLVTVSS
VL: QSALTQPRSVSGSPGQSVTISCTGTSSDVGGYNYVSWYQQHPGKAPKLMIYDVSKRPSGVPDRFSGSKSGNTASLTISGLQAEDEADYYCCSYAGSVVFGGGTKLTVL
B9: antibody 372 (antibody, V domains shown)
VH: QVQLVESGGGVVQPGRSLRLSCAASGFTFSSYAMHWVRQAPGKGLEWVAVISYDGSNKYYADSVKGRFTISRDNSKNTLYLQMNSLRAEDTAVYYCARDLGTSALLWFGELFLNYGMDVWGQGTTVTVSS
VL: QSALTQPRSVSGSPGQSVTISCTGTSSDVGGYNYVSWYQQHPGKAPKLMIYDVSKRPSGVPDRFSGSKSGNTASLTISGLQAEDEADYYCCSYAGSPILVFGGGTKLTVL
B10: antibody 367 (antibody, V domains shown)
VH: QVQLVQSGAEVKKPGASVKVSCKASGYTFTGYYIHWVRQAPGQGLEWMGWINPNSGGTIYAQKFQGRVTMTRDTSISTAYMELSRLTSDDTAVYSCAREPYYDILTGYYAPRRYFDYWGQGTLVTVSS
VL: QSALTQPASVSGSPGQSITISCTGTSSDVGSYNYVSWYLQHPGKAPKLMIYDVSNRPSGVSNRFSGSKSGNTASLTISGLQAEDEADFYCSSYTSRSTYVFGTGTKVTVL
B11: antibody 379 (antibody, V domains shown)
VH: QVQLQESGPGLVKPSQTLSLTCTVSGGSISSGGYYWSWIRQHPGKGLEWIGYIYYSGSTYYNPSLKSRVTISVDTSKNQFSLKLSSVTAADTAVYYCARGPLDFWSGYFRLRYFDSWGQGTLVTVSS
VL: B10 VL with S31G, L39Q, S54T, F88Y, R96S, Y99C
B12: antibody 363 (antibody, V domains shown)
VH: EVQLLESGGGLVQPGGSLRLSCAASGFTFSTYAMSWVRQAPGKGLEWVSAISGSGGSTYYADSVKGRFTISRDNSKNTLYLQMNSLRAEDTAVYYCASGYSPDYWGQGTLVTVSS
VL: not shown
B13: anti-SARS-CoV-2 antibody 462 (antibody, V domains shown)
VH: QVQLVESGGGVVQPGRSLRLSCAASGFTFSSYGMHWVRQAPGKGLEWVAVIWYDGNNKYYADSVKGRFTISRDNSKNTLYLQMNSLRAEDTAVYYCAKDPTWFGELPSYYYYGMDVWGQGTTVTVSS
VL: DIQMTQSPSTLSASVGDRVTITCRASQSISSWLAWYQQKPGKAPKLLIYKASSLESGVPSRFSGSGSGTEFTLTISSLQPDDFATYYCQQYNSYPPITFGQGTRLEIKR
B14: anti-SARS-CoV-2 antibody 408 (antibody, V domains shown)
VH: QVQLVESGGGVVQPGRSLRLSCAASGFTFSSYAMHWVRQAPGKGLEWVAVISYDGSNKYYADSVKGRFTISRDNSRNTLYLQMNSLRAEDTAVYYCAKGADTPHYSGYDFLSVGYYYYGMDVWGQGTTVTVSS
VL: DIQMTQSPSSLSASVGDRVTITCRASQSISSYLNWYQQKPGKAPKLLIYAASSFQSGVPSRFSGSRSGTDFTLTISSLQPEDFATYYCQQSYSAPFTFGPGTKVDIKR
B15: anti-SARS-CoV-2 antibody 555 (antibody, V domains shown)
VH: QVQLVQSGAEVKKPGSSVKVSCKASGGTFSNYAISWVRQAPGQGLEWMGRIIPILGIANYAQKFQGRVTITADKSTSTAYMELSSLRSEDTAVYYCARGYYEARHYYYYYAMDVWGQGTAVTVSS
VL: not shown
B16: anti-SARS-CoV-2 antibody 292 (antibody, V domains shown)
VH: EVQLVESGGGLIQPGGSLRLSCAASGFTVSSNYMSWVRQAPGKGLEWVSVIYSGGSTYYADSVKGRFTISRDNSKNTLYLQMNSLRAEDTAVYYCARDLQGGGGPWGQGTLVTVSS
VL: AIQMTQSPSSLSASVGDRVTITCRASQGIRNDLGWYQQKPGKAPKLLIYAASSLQSGVPSRFSGSGSGTDFTLTISSLQPEDFATYYCLQDYNYPRTFGQGTKVEIKR
B17: anti-SARS-CoV-2 antibody 481 (antibody, V domains shown)
VH: B16 VH with Y58F, D98E, L99V, Q100A, G102T, G103Y, G104D, P105Y
VL: DIQMTQSPSSVSASVGDRVTITCRASQGISSWLAWYQQKPGKAPKLLIYAASSLQSGVPSRFSGSGSGTDFTLTISSLQPEDFATYYCQQANSFPGGTFGPGTKVDIKR
B18: anti-SARS-CoV-2 antibody 447 (antibody, V domains shown)
VH: B16 VH with I12V, L99K, Q100S, G101S, G103S
VL: B16 VL
B19: anti-SARS-CoV-2 antibody 483 (antibody, V domains shown)
VH: QVQLQESGPGLVKPSETLSLTCTVSGGSISSYYWSWIRQPPGKGLEWIGYIYYSGSTNYNPSLKSRVTISVDTSKNQFSLKLSSVTAADTAVYYCARAPEEKSSEIGELVGWGWFDPWGQGTLVTVSS
VL: not shown
B20: anti-SARS-CoV-2 antibody 419 (antibody, V domains shown)
VH: QVQLVQSGAEVKKPGASVKVSCKASGYTFTSYYMHWVRQAPGQGLEWMGIINPSGGSTSYAQKFQGRVTMTRDTSTSTVYMELSSLRSEDTAVYYCARDWTQSSGYDYYYGLDVWGQGTTVTVSS
VL: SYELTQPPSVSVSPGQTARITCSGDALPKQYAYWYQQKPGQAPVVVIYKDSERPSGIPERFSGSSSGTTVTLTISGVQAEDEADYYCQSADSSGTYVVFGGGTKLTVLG
B21: anti-SARS-CoV-2 antibody 364 (antibody, V domains shown)
VH: EVQLVESGGGLVQPGRSLRLSCTASGFTFGDYAMSWFRQAPGKGLEWVGFIRSKAYGGTTEYAASVKGRFTISRDDSKSIAYLQMNSLKTEDTAVYYCTRFGIDYDYIWGSYRYTTLFDYWGQGTLVTVSS
VL: not shown
B22: anti-SARS-CoV-2 antibody 506 (antibody, V domains shown)
VH: QITLKESGPTLVKPTQTLTLTCTFSGFSLSTSGVGVGWIRQPPGKALEWLALIYWDDDKRYSPSLKSRLTITKDTSKNQVVLTMTNMDPVDTATYYCAHHSLSSIFDYWGQGTLVTVSS
VL: QSALTQPASVSGSPGQSITISCTGTSSDVGDYNYVSWYQQHPGKAPKLMIYEVSNRPSGVSNRFSGSKSGNTASLTISGLQAEDEADYYCSSYTSSSTVFGGGTKLTVLG
B23: anti-SARS-CoV-2 antibody 488 (antibody, V domains shown)
VH: EVQLVESGGGLIQPGGSLRLSCAASGLTVSSNYMSWVRQAPGKGLEWVSVIYSGGSTYYADSVKGRFTISRDNSKNTLYLQMNSLRAEDTAVYYCARSPYGGNSWGQGTLVTVSS
VL: not shown

Target: SARS-CoV spike protein (SARS-CoV, UniProt P59594 14-1190)
Assay: not given

Binder | median fluorescence intensity, fold over isotype control [fold over isotype]
B1 | 1.16
B2 | 1.08
B3 | 1.12
B4 | 1.23
B5 | 1.09
B6 | 1.21
B7 | 1.19
B8 | 1.09
B9 | 1.08
B10 | 1.08
B11 | 5.9
B12 | 1.09

Target: SARS-CoV-2 full-length spike protein on pseudotyped lentivirus (SARS-CoV-2, UniProt P0DTC2 14-1273)
Assay: cell-based or functional assay

Binder | IC50 (pseudoneutralization) [µg/mL] | IC80 (pseudoneutralization) [µg/mL]
B13 | > 50 | > 50
B14 | > 50 | > 50
B15 | 0.38 | 1.4
B16 | > 50 | > 50
B17 | 17.2 | > 50
B18 | > 50 | > 50
B19 | > 50 | > 50
B20 | > 50 | > 50
B21 | > 50 | > 50
B22 | > 50 | > 50
B23 | 3.52 | > 50
